Laboratory results: paper PMC12648313, “Enhancing the Efficacy, Utility, and Throughput of the Transcription Block Survival Peptide Library Screening Platform” (JACS Au, 2025)

Key:
FAM-labeled CRE DNA = test: FP DNA binding, ATF2; conditions: ATF2 12 nM-10 μM, 10 nM FAM-CRE DNA; 20 mM potassium phosphate, 50 mM NaCl, 5 mM MgCl2, 10 mM TCEP, pH 7.4; 1 h, room temperature; one site model
FAM-CRE DNA = test: FP DNA binding, CREB1; conditions: pH 7.4
Procedure: (§1) removed before peptide concentration determination.
(§2) Peptide samples were suspended in 20
(§3) Post-melt scans at 20°C confirmed the
(§4) Sequential 2 µL injections of ATF2W (50 µM)
(§5) Data from a control experiment whereby […]
(§6) errors are given as one standard deviation.
(§7) Fluorescence polarisation: Fluorescence polarisation was measured in a CLARIOstar […]
(§8) chloride, 5 mM MgCl2, 10 mM TCEP, pH 7.4 buffer. Palindromic FAM-CRE DNA oligo was […]
(§9) purchased from Merck: 5’[6FAM]- GCGCTGACGTCAGCGC. 200 µM of the oligo was […]
(§10) prepared in water and then annealed by heating to 95°C for 10 minutes before cooling slowly to room temperature to give a 100 µM duplex stock. Samples containing 10 nM FAM-CRE and a serial dilution of ATF2 (12 nM-10 µM) were prepared and incubated at room temperature for 1 hour before transferring to the assay plate for measurement. Data were fit to a one site binding model. For antagonism experiments, the ATF2 concentration required for 80% response was selected. Samples containing 10 nM FAM-TRE, 625 nM ATF2 and a serial dilution of ATF2W (29 nM-12 µM) were prepared and incubated at room temperature for 2 hours before transferring to the assay plate for measurement. CREB1/CRE, cJun/TRE and DLX5/H-box DNA antagonism were determined by the equivalent experiments, using the FAM-CRE oligo above; FAM-TRE DNA oligoes: 5’-[6FAM]-TCTCTGACTCAGAGA, 5’- […]

[1] = tested on: CREB1 bZIP-CRE DNA (CRE mDHFR reporter); test: TBS growth assay: transcription block relief / peptide antagonism in E. coli (CREB1/CRE); format: cell-based, E. coli BL21-Gold; conditions: M9 agar, 8 μM TMP, 1 mM IPTG, three independent experiments
Excerpt: To validate the new TBS constructs, six BL21-Gold E. coli control strains were generated. Empty plasmids (lacking gene of interest) were used to control for replication and antibiotic stresses (Table ): Control strains 1 and 4 contained mDHFR gene reporter plasmids for 5xCRE and 9xCRE respectively, and two empty plasmids; control strains 2 and 5 contained reporter plasmid, target plasmid encoding the CREB1 basic-leucine zipper (bZIP) domain and one empty plasmid; control strains 3 and 6 contained reporter plasmid, target plasmid and the antagonist plasmid encoding A-CREB (peptide inhibitor of CREB1 comprising a rationally designed acidic extension appended to the N-terminus of the CREB1 LZ).
2 Introduction of CRE DNA sites into the 5′-promoter/UTR region of a mDHFR plasmid facilitates effective transcription block. […]
(§11) pressure respectively. Three independent growth experiments were conducted for each strain/condition with the percentage of the plate covered by bacterial colonies determined using ImageJ 1.54G. Images were converted to 8-bit, threshold values were set to identify coverage, and the resulting black and white image was measured for percentage coverage in a defined circle excluding the plate edge. Percentage coverage was utilised to quantify both bacterial survival and growth rate.

E. coli = test: TBS growth without TMP (cellular toxicity of expression); format: cell-based, E. coli BL21-Gold; conditions: strain 10, 0 μM TMP, 0.8 mM IPTG
Procedure: (§12) 3 Introduction of H-box DNA sites into the 5′-promoter/UTR region of a mDHFR plasmid enables transcription block by both DLX5 full length and homeodomain. Equal numbers of cells from the control strains (Table ) were plated on selective M9 agar (0 or 8 μM TMP, 0.8 or 0.2 mM IPTG) and incubated (30 or 37 °C) before imaging. Bar charts show % plate coverage for three independent experiments with error bars shown as one standard deviation. Select p values from a t test are indicated (*p ≤ 0.05; **p ≤ 0.01; ns = not significant).
(§13) Enhancing the efficacy, utility and throughput of the Transcription Block Survival peptide library screening platform
(§14) Andrew Brennan1,2, T M Simon Tang1 and Jody M Mason1,2
(§15) 1Department of Life Sciences, University of Bath, Bath BA2 7AY, United Kingdom 2Address correspondence to JMM or AB (j.mason@bath.ac.uk; ab3107@bath.ac.uk) […]
as §11

[2] = tested on: 9xDLX (H-box) mDHFR reporter; test: TBS growth assay: transcription block by DLX5 HD / FL; format: cell-based, E. coli BL21-Gold; conditions: 8 μM TMP; for colony formation on target expression (transcription block): strains 9 (HD) and 10 (FL) vs 8, 9xDLX mDHFR, M9 agar, 0.8 or 0.2 mM IPTG, 30 or 37 °C, three independent experiments
Excerpt: To highlight the platforms versatility for TFs with distinct DNA recognition motifs, we next constructed a 9xhomeobox (H-Box) system to identify inhibitors of homeodomain-containing TFs, including the DLX (Figure C), pre-B cell leukemia transcription factor (PBX) and orthodenticle homeobox protein (OTX) families. As with the CRE-based design, nine H-box consensus sequences were inserted into the 5′-promoter/UTR region of the mDHFR reporter gene (Figure S4).
as §12, §13, §14, §15
Plasmid constructs: Target cognate binding sequence-containing inserts were produced using PCR fill-in reactions from synthesised primers (Merck). They were then subcloned using XhoI and SphI sites into the pQE16-derivative pES300d WT mDHFR plasmid (Figure S1, S2, S3). […]
as §11

FAM-H-Box DNA = test: FP DNA binding, DLX5; conditions: pH 7.4
Procedure: as §1, §2, §3, §4, §5, §6, §7, §8, §9, §10

cJun bZIP [3] = biological target: cJun bZIP (UniProt P05412); test: fluorescence polarization; conditions: FP: chloride salt (buffer and salt concentration truncated in material), 5 mM MgCl2, 10 mM TCEP, pH 7.4; 10 nM FAM-DNA; 1 h incubation, temperature not in …
cJun bZIP [4] = biological target: cJun bZIP (UniProt P05412); test: competition (FP); conditions: antagonist peptide ATF2W; FP: chloride salt (buffer and salt concentration truncated in material), 5 mM MgCl2, 10 mM TCEP, pH 7.4; 10 nM FAM-DNA; 1 h incubation, temperature not in …
CREB1 bZIP [5] = biological target: T1, CREB1 bZIP (UniProt P16220 269-327); test: fluorescence polarization; FP: chloride salt (buffer and salt concentration truncated in material), 5 mM MgCl2, 10 mM TCEP, pH 7.4; 10 nM FAM-DNA; 1 h incubation, temperature not in material; conditions: chain copies: 2; label: 5' 6-FAM; blunt; self-complementary, 2 copies
T1 sequence: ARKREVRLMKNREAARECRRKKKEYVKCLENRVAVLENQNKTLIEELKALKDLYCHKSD

CREB1 bZIP [6] = biological target: T1, CREB1 bZIP; test: competition (FP); antagonist peptide ATF2W; FP: chloride salt (buffer and salt concentration truncated in material), 5 mM MgCl2, 10 mM TCEP, pH 7.4; 10 nM FAM-DNA; 1 h incubation, temperature not in material; conditions: chain copies: 2; label: 5' 6-FAM; blunt; self-complementary, 2 copies
ATF2 bZIP [7] = biological target: T2, ATF2 bZIP (human, UniProt P15336 352-410); test: competition (FP); antagonist: non-selected library member control peptide; FP: chloride salt (buffer and salt concentration truncated in material), 5 mM MgCl2, 10 mM TCEP, pH 7.4; 10 nM FAM-DNA; 1 h incubation, temperature not in material; conditions: chain copies: 2; label: 5' 6-FAM; blunt; self-complementary, 2 copies
T2 sequence: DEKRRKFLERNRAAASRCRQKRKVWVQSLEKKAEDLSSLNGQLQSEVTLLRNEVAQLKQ

ATF2 bZIP [8] = biological target: T2, ATF2 bZIP; test: fluorescence polarization; 10 nM DNA, ATF2 12 nM-10 uM; FP: chloride salt (buffer and salt concentration truncated in material), 5 mM MgCl2, 10 mM TCEP, pH 7.4; 10 nM FAM-DNA; 1 h incubation, temperature not in material; conditions: chain copies: 2; label: 5' 6-FAM; blunt; self-complementary, 2 copies
ATF2 bZIP [9] = biological target: T2, ATF2 bZIP; test: competition (FP); antagonist peptide ATF2W 29 nM-12 uM, 625 nM ATF2; FP: chloride salt (buffer and salt concentration truncated in material), 5 mM MgCl2, 10 mM TCEP, pH 7.4; 10 nM FAM-DNA; 1 h incubation, temperature not in material; conditions: chain copies: 2; label: 5' 6-FAM; blunt; self-complementary, 2 copies
FAM-TRE DNA = test: FP DNA binding, cJun; conditions: pH 7.4
Procedure: as §1, §2, §3, §4, §5, §6, §7, §8, §9, §10

DLX5 HD = DLX5 HD (UniProt P56178 138-198); test: fluorescence polarization; FP: chloride salt (buffer and salt concentration truncated in material), 5 mM MgCl2, 10 mM TCEP, pH 7.4; 10 nM FAM-DNA; 1 h incubation, temperature not in material; conditions: label: 5' 6-FAM; blunt; self-complementary, 2 copies
Chain of DLX5 HD (P56178 138-198): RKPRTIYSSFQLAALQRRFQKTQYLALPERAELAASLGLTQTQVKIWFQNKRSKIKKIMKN

Work on “ATF2: human ATF2 bZIP domain spans from Asp352 to Gln410” yielded a Kd (FAM-labeled CRE DNA) of 277 ± 19 nM.

In the case of “CREB1: CREB1 bZIP domain spans from Ala283 to Asp341 (ARKREVRLMKNREAARECRRKKKEYVKCLENRVAVLENQNKTLIEELKALKDLYCHKSD)”, the Kd (FAM-CRE DNA) is reported as 156 ± 26 nM and the “bacterial growth on target expression (transcription block)” value ([1]; strains 2 and 5 (5xCRE and 9xCRE mDHFR)) is reported as “markedly reduced growth”.

In the case of DLX5 FL: full-length DLX5, the “growth in absence of TMP (cellular toxicity)” value (E. coli) is reported as “reduced growth was also observed in the absence of TMP”, the “growth inhibition on target expression, comparison FL vs HD” value ([2]; strain 10 vs 9, optimized conditions: 0.2 mM IPTG or 30 °C) is reported as “produced a robust transcriptional block and more effectively suppressed E. coli growth than DLX5 HD” and the “colony formation on target expression (transcription block)” value [2] is reported as “introduced a transcriptional block, resulting in reduced colony formation”.

“DLX5: DLX5 HD spans from Val137 to Asn198” was tested, and the “colony formation on target expression (transcription block)” value [2] was “less pronounced than in the corresponding CRE system” and the Kd (FAM-H-Box DNA) was 383 ± 19 nM.

In the case of “LEQQLEELAQENEELEKEAEELEQELAELENRVAVLENQNKTLIEELKALKDLYCHKSD [A-CREB, reference compound]”, the “bacterial growth restoration (relief of transcriptional block)” value ([1]; strains 3 and 6 (5xCRE and 9xCRE mDHFR) expressing CREB1 bZIP and A-CREB, % plate coverage) is reported as “Growth was restored”.

Molecule “TCTCTGACTCAGAGA (double strand) [FAM-TRE]” has a Kd (cJun bZIP [3]) of 330 nM and an IC50 (cJun bZIP [4]) of 1850 nM.

B1: FAM-CRE (dsDNA)
DNA 1: GCGCTGACGTCAGCGC
DNA 2: GCGCTGACGTCAGCGC
In the case of B1, the Kd (CREB1 bZIP [5]) is reported as 156 ± 26 nM, the IC50 (CREB1 bZIP [6]) is reported as 2360 ± 59 nM and the IC50 (ATF2 bZIP [7]) is reported as 3690 ± 110 nM. For the same molecule, the Kd (ATF2 bZIP [8]) was 277 ± 19 nM and the IC50 (ATF2 bZIP [9]) was 667 ± 71 nM.

B2: cJun: purified cJun bZIP (protein)
chain: RIKAERKRMRNRIAASKCRKRKLERIARLEEKVKTLKAQNSELASTANMLREQVAQLKQKVMNH
For B2, the Kd (FAM-TRE DNA) was 330 ± 42 nM.

B3: FAM-H-Box (dsDNA)
DNA 1: TCTCTAATTAGAGA
DNA 2: TCTCTAATTAGAGA
Work on B3 yielded a Kd (DLX5 HD) of 383 ± 19 nM.
